Measured values taken from publication PMC10308935 (Journal of Virology, 2023).

What was measured:
[1] = molecular target: SARS-CoV-2 Omicron BA.2 spike receptor-binding domain (SARS-CoV-2 Omicron BA.2, strain); assay: BLI
[2] = molecular target: SARS-CoV-2 Omicron BA.5 spike receptor-binding domain (SARS-CoV-2 Omicron BA.5, N440K | L452R | F486V); assay: BLI

B1: MO1 monoclonal antibody (recombinant human IgG) (antibody, V domains shown)
VH: EVQLVESGGGMVQPGRSLRLSCAASGFTFDDYAMHWVRQIPGKGLEWVSGISWNSGDIGYADSVKGRFTISRDNAKNSLHLQMNSLRAEDTALYYCAKDKTYDSPGYFLNSFDYWGQGTLVTVSS
VL: DIQMTQSPSSLSASVGDRVTITCRASQGISSYLVWYQQKPGKAPKFLIYAASTLQSGVPSRFSGSGSGTDFTLTISSLQPEDFATYYCQQLYSYPITFGQGTRLEIK
- Kd [1]: 3.3 nM
- Kd [2]: 11 nM
